In the RNAGym collection of RNA variant scans (doi:10.7554/elife.90254) one finds self-cleavage data, which are given here for 167 variants.

B1: OR4K15 (parent)
chain: GUUAACGGUCAUAGGCCAUGGAAACUAGGAGCACCAUUUCGCUGCCAGUGAAGAAAUGAACAAAGAAAAUCUGGGCCAGGCAGGCAUCAAAAGAAAUAGUCUUGCGCUCAACCAGAAAGUCUGUAAUCAUUUUAAGGGUA

This data set covers variants of B1. The experiment in a line: self-cleavage, relative activity (ratio to wild type); higher = more cleavage; in vitro, sequencing; the parent is a self-cleaving ribozyme.
G53A A117G: the self-cleavage came to 2.26.
With A51G G73A, the self-cleavage amounted to 0.26.
As for A54U A64G, the figure is 1.55.
Under A54G G84C stands 0.61; under A54U G106A, 0.02; under A52G A129C, 0.65.
Under A54G A64U stands 1.67.
Regarding A54G A67U, the self-cleavage worked out at 2.17.
As for A51U A52U, the self-cleavage stood at 1.99.
Consider A51U A52G, for which the self-cleavage was 0.93.
As to A51G U130G, the self-cleavage amounted to 0.67.
A51G U130A: the self-cleavage stood at 1.63.
Consider A54G U108C, for which the self-cleavage turned out to be 0.02.
As for A52U A86G, the self-cleavage was found to be 1.61.
With A54G U122A, the self-cleavage was 1.72.
Regarding A54G U122C, the self-cleavage amounted to 1.
Consider A54G G104A, for which the self-cleavage amounted to 0.09.
For A51G G84A, the self-cleavage was 1.78.
In the case of A52G A91G, the self-cleavage worked out at 1.01.
Under A54G A111G stands 0.03.
As to A54G A111U, the self-cleavage was 0.06.
With A51G U108C, the self-cleavage is 0.02.
As to A52G A117C, the self-cleavage worked out at 0.47.
For A52G A117G, the self-cleavage came out at 1.48.
As for A54U U87C, the self-cleavage stood at 1.34.
Under A54G U124C stands 0.75; under A51U A54G, 1.36; under A54G A95G, 1.81.
For A54G A134G, the self-cleavage was determined as 1.2.
Consider A52U A129G, for which the self-cleavage amounted to 0.81.
As to A52U A140G, the self-cleavage was 0.56.
On to A51U U132C, for which the self-cleavage came out at 1.06.
In the case of A51U U132G, the self-cleavage came to 1.49.
Under A54G A89G stands 1.55.
Turning to A54G A89U, the self-cleavage came to 1.61.
Consider A54U A63G, for which the self-cleavage stood at 1.93.
For A54U U139A, the self-cleavage is 1.63.
As for A52U A126G, the figure is 1.31; as for A52G G79A, 0.27; as for A54G U57A, 1.26.
With A54G U127C, the self-cleavage turned out to be 1.07.
As to G53U A66U, the self-cleavage was found to be 1.77.
On to A54G A117U, for which the self-cleavage stood at 0.91.
As for A54U U108C, the self-cleavage was found to be 0.01.
For A52U A134U, the self-cleavage was 1.41.
On to A51G A126G, for which the self-cleavage is 0.71.
Under A52G A54G stands 1.41; under A51G C77U, 1.46.
Consider A51U U72A, for which the self-cleavage was determined as 0.45.
For the variant A51U U72C, the self-cleavage is 0.23.
Regarding A52U U131A, the self-cleavage worked out at 1.49.
With A51G U57C, the self-cleavage was found to be 0.93.
Take A54G A126U: the self-cleavage worked out at 0.42.
On to A51U U57G, for which the self-cleavage came out at 0.64.
As for A52G U108G, the figure is 0.03; as for A52G U108C, 0.02; as for A52G U108A, 0.02.
Regarding A52U G83A, the self-cleavage turned out to be 1.64.
Under A52C U120C stands 0.58; under A54G A125G, 0.81; under A51G A135U, 0.7.
With A51U A91G, the self-cleavage is 0.5.
As to A54G A110C, the self-cleavage was 0.2.
Take A54G A110G: the self-cleavage was found to be 0.21.
As for A52G U132C, the self-cleavage amounted to 1.84.
As to A52G U132A, the self-cleavage amounted to 0.88.
On to A52G U133A, for which the self-cleavage stood at 2.06.
For the variant A52U A110G, the self-cleavage was 0.19.
Under A51U A110G stands 0.23; under A54U A78U, 0.29; under A54U A78C, 0.29.
In the case of A54U A78G, the self-cleavage turned out to be 0.25.
Regarding A54G A91C, the self-cleavage worked out at 1.05.
On to A54G A91G, for which the self-cleavage stood at 1.18.
On to A52G G74A, for which the self-cleavage came to 0.13.
In the case of A51U U87A, the self-cleavage was 1.92.
Under A52C A111G stands 0; under A51U A55U, 1.52.
As for A54G C105A, the self-cleavage amounted to 0.06.
In the case of A52G C121A, the self-cleavage amounted to 2.07.
For the variant A52G C112U, the self-cleavage was 0.01.
As to A52G A59U, the self-cleavage is 1.28.
For the variant A52G A59G, the self-cleavage was found to be 1.13.
With A51U A117G, the self-cleavage was determined as 2.45.
Under A54U A98G stands 0.2; under A54G A78U, 0.26.
Under A51U G137A stands 1.43.
With A52U A94G, the self-cleavage was 1.52.
Take A51G U127A: the self-cleavage is 2.09.
Consider A51G U127C, for which the self-cleavage came to 1.04.
Under A52U A116G stands 1; under A51U U130A, 1.4; under A51U U130C, 1.62.
Consider A52G U102A, for which the self-cleavage turned out to be 0.89.
Turning to A52G U102C, the self-cleavage came out at 2.18.
As for G53U A114U, the self-cleavage came to 0.19.
Take A52C A67U: the self-cleavage worked out at 1.67.
Under A51G U70C stands 0.95.
Under A51G A96U stands 0.46; under A54U U131C, 1.11; under A52C A68G, 0.55.
Take A52G A78G: the self-cleavage amounted to 0.28.
With A52G A126G, the self-cleavage amounted to 0.47.
For A52G C105A, the self-cleavage is 0.02.
Take A54C: the self-cleavage was determined as 1.41.
As for A54G, the self-cleavage is 1.06.
Regarding A54U, the self-cleavage is 1.2.
Consider A51G U103C, for which the self-cleavage was 1.09.
A51G U139A: the self-cleavage worked out at 1.48.
Turning to A52G A69U, the self-cleavage came out at 1.25.
As for A52G C109U, the self-cleavage came out at 0.71.
Under A54U U70C stands 0.53.
Take A52C A90G: the self-cleavage turned out to be 0.58.
As to A51G A110G, the self-cleavage came to 0.08.
For A52G C71G, the self-cleavage turned out to be 0.39.
As for A54G U72A, the figure is 0.19; as for A54G U72C, 0.23.
As for A51G U97C, the self-cleavage is 1.75.
Turning to A52U A95G, the self-cleavage came out at 1.48.
As to A51G A117U, the self-cleavage was 0.52.
Turning to A51G A117G, the self-cleavage turned out to be 2.07.
With A52G A96G, the self-cleavage was determined as 1.64.
Consider A54G U120C, for which the self-cleavage came out at 0.3.
Regarding A54G U120A, the self-cleavage came out at 1.89.
Take A52C A54G: the self-cleavage was determined as 1.34.
In the case of A54U G74U, the self-cleavage is 0.02.
For A54U A135U, the self-cleavage amounted to 2.01.
On to A52G A116C, for which the self-cleavage stood at 0.11.
Take A52G A116G: the self-cleavage worked out at 0.91.
As to A51G C128U, the self-cleavage was determined as 2.26.
On to A54G A55C, for which the self-cleavage came out at 1.94.
Under A54G A55G stands 0.99; under G53U U100C, 2.06; under A52G G73A, 0.11.
In the case of A51G A111G, the self-cleavage was determined as 0.03.
As for A52U A67G, the figure is 0.87.
As for A51U U102C, the figure is 1.99; as for A54G C85A, 0.82.
G53A A91G: the self-cleavage stood at 1.6.
For A52G G75C, the self-cleavage amounted to 0.13.
Consider A52G U127A, for which the self-cleavage is 1.73.
Under A52G U100G stands 1.16.
Under A54G A92G stands 1.37.
Under A51G U100C stands 1.87.
As to A51G U100A, the self-cleavage worked out at 0.56.
In the case of A54G A69C, the self-cleavage turned out to be 1.39.
In the case of A54G A69G, the self-cleavage was found to be 1.1.
For the variant A51U A63G, the self-cleavage amounted to 1.62.
Take A52U U133C: the self-cleavage was 1.72.
For A51G U72G, the self-cleavage turned out to be 0.25.
As to A51G U72C, the self-cleavage was found to be 0.38.
Take A54U A125G: the self-cleavage worked out at 0.83.
Under A52G A60C stands 0.73; under A51U A95G, 2; under A54G G106U, 0.02.
As for A52U C101U, the figure is 0.19.
As for A54G A68U, the self-cleavage was 1.91.
Consider A52G A98G, for which the self-cleavage worked out at 0.8.
In the case of A52G U120A, the self-cleavage came to 2.19.
As for A54C A64G, the self-cleavage was 1.36.
Consider A52G A89U, for which the self-cleavage is 1.7.
Under A52G A89G stands 1.84.
As for A52U A111G, the figure is 0.01; as for A52G A62C, 1.53; as for A51U C101U, 0.72.
For A52G C113U, the self-cleavage was 0.14.
A52G G123A: the self-cleavage amounted to 0.48.
